Results published in patent US20060286636A1 (published 2006).

How the values were obtained:
[1] = target: T1, rat Neuropilin-1/Fc chimeric receptor (rat, UniProt Q9QWJ9 22-854); experiment: competition plate binding assay: cold competitor against 125I-VEGF165 on immobilized Np-1/Fc, scintillation counting
[2] = target: T2, mouse VEGFR-2/Fc chimeric receptor (mouse, UniProt P35918 20-762); experiment: competition plate binding assay: cold competitor against 125I-VEGF165 on immobilized VEGFR-2 (KDR)/Fc, scintillation counting
T2 construct: Bought from R&D Systems; also called KDR; KDR receptor

[3] = target: T3, mouse VEGFR-1/Fc chimeric receptor (mouse, UniProt P35969 23-759); experiment: competition plate binding assay: cold competitor against 125I-VEGF165 on immobilized VEGFR-1 (Flt-1)/Fc, scintillation counting
T3 construct: Bought from R&D Systems; also called Flt-1; Flt-1 receptor

[4] = target: T1, rat Neuropilin-1/Fc chimeric receptor; experiment: competition plate binding assay, cold competitor against 125I-VEGF165 on immobilized rat neuropilin-1/Fc, without heparin
[5] = target: T1, rat Neuropilin-1/Fc chimeric receptor; experiment: competition plate binding assay, VEGF164 against 125I-VEGF165 on immobilized rat neuropilin-1/Fc, compared with HBD
[6] = target: T3, mouse VEGFR-1/Fc chimeric receptor; experiment: competitive binding of cold competitor against 125I-VEGF165 on immobilized mouse VEGFR-1/Fc, one-site competition fit [panel VEGFR-1]
[7] = target: T2, mouse VEGFR-2/Fc chimeric receptor; experiment: competitive binding of cold competitor against 125I-VEGF165 on immobilized mouse VEGFR-2/Fc, one-site competition fit [panel VEGFR-2]
[8] = target: T1, rat Neuropilin-1/Fc chimeric receptor; experiment: competition plate binding assay, HBD against 125I-VEGF165 on immobilized rat neuropilin-1/Fc

T1 sequence (Q9QWJ9 22-854, stated change not applied): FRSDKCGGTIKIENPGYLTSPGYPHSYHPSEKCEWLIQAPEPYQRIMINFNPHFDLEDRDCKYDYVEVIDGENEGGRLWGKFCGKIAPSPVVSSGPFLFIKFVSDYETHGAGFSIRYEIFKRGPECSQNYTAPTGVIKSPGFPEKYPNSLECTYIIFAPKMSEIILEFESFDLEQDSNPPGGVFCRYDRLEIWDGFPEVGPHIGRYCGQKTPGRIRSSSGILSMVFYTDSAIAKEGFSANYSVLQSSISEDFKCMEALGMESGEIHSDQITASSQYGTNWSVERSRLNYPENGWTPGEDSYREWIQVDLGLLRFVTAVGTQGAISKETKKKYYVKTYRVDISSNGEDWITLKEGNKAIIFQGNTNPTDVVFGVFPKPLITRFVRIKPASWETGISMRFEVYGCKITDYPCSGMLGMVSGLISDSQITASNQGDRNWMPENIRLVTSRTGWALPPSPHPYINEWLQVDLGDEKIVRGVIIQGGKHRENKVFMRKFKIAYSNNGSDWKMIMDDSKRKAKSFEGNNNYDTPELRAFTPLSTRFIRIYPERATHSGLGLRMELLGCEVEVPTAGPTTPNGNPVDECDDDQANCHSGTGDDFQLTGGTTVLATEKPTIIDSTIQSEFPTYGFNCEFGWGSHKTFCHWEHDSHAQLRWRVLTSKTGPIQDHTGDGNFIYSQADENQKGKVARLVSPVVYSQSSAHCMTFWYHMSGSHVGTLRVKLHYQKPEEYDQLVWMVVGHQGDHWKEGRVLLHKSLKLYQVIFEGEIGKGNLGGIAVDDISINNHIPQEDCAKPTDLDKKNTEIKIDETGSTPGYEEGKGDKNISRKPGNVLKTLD
T2 sequence (P35918 20-762, stated change not applied): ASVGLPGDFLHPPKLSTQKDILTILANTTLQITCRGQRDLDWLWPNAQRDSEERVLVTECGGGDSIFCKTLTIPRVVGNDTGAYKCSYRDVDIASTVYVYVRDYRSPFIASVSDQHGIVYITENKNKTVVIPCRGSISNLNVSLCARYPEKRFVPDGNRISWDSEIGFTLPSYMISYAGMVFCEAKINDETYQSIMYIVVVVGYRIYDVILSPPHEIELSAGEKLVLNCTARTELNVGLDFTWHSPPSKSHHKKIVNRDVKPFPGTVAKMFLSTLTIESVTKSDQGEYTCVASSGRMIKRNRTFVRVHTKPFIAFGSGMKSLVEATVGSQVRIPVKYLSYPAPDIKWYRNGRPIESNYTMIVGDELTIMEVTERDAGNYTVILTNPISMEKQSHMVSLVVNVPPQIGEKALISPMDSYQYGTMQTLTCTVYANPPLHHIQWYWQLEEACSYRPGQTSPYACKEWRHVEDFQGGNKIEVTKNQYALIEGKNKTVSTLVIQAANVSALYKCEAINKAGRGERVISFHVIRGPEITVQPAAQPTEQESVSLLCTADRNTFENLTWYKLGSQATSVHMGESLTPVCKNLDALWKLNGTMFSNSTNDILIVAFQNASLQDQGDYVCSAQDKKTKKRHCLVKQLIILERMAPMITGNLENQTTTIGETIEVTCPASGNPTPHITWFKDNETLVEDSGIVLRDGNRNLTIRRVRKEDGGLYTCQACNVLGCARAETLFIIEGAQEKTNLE
T3 sequence (P35969 23-759, stated change not applied): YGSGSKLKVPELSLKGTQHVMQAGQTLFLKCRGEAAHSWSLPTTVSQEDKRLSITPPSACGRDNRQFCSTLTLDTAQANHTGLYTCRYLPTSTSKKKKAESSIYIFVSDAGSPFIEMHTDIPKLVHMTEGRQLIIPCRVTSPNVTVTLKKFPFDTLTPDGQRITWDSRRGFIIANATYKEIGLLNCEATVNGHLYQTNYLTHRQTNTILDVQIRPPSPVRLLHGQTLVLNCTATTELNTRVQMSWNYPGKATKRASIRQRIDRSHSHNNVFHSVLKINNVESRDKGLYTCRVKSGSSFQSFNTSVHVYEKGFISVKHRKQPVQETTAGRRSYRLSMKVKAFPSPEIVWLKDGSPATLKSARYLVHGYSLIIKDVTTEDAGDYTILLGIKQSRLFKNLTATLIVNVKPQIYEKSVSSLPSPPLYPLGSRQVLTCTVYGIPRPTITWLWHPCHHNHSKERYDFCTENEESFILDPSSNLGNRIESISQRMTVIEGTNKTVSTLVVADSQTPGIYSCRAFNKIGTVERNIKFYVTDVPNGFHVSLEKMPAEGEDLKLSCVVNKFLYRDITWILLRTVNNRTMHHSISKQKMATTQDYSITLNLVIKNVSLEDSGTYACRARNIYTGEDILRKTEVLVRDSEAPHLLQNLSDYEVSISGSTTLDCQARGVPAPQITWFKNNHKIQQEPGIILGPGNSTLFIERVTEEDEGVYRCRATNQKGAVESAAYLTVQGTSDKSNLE

B1: VEGF164 double mutant R14A/R49A (ligand)
chain: APMAEGGGQNHHEVVKFMDVYQRSYCHPIETLVDIFQEYPDEIEYIFKPSCVPLMRCGGCCNDEGLECVPTEESNITMQIMRIKPHQGQHIGEMSFLQHNKCECRPKKDRARQENPCGPCSERAKHLFVQDPQTCKCSCKNTDSRCKARQLELNERTCACDKPRR
notes: ID No. 23; also called R14/R49A; mutant R14/R49A
- IC50 (read off the curve) [1]: ~5 nM

B2: VEGF164 (wild type) (ligand)
chain: APTTEGEQKSHEVIKFMDVYQRSYCRPIETLVDIFQEYPDEIEYIFKPSCVPLMRCAGCCNDEALECVPTSESNITMQIMRIKPHQSQHIGEMSFLQHSRCECRPKKDRTKPENHCEPCSERRKHLFVQDPQTCKCSCKNTDSRCKARQLELNERTCRCDKPRR
- IC50 (read off the curve) [2]: ~0.08 nM
- IC50 (read off the curve) [3]: ~0.02 nM
- IC50 [4]: 0.128 nM
- fold stronger competitive binding than HBD [5]: ~230 fold
- IC50 (read off the curve) [6]: ~0.04 nM
- IC50 (read off the curve) [7]: ~0.2 nM

B3: VEGF164 mutant K26A (ligand, mouse, UniProt Q00731-2 27-190, looked up)
chain: APTTEGEQKSHEVIKFMDVYQRSYCRPIETLVDIFQEYPDEIEYIFKPSCVPLMRCAGCCNDEALECVPTSESNITMQIMRIKPHQSQHIGEMSFLQHSRCECRPKKDRTKPENHCEPCSERRKHLFVQDPQTCACSCKNTDSRCKARQLELNERTCRCDKPRR
notes: mature
- IC50 (read off the curve) [1]: ~0.4 nM
- fold reduction of binding affinity compared to VEGF164 [4]: 2.5 fold

B4: recombinant heparin-binding domain of VEGF164 (HBD) (peptide)
chain: ARQENPCGPCSERRKHLFVQDPQTCKCSCKNTDSRCKARQLELNERTCRCDKPRR
notes: also called soluble HBD; VEGF55
- IC50 [8]: 28.6 nM

B5: VEGF120 (ligand)
chain: APTTEGEQKSHEVIKFMDVYQRSYCRPIETLVDIFQEYPDEIEYIFKPSCVPLMRCAGCCNDEALECVPTSESNITMQIMRIKPHQSQHIGEMSFLQHSRCECRPKKDRTKPEKCDKPRR
- IC50 (read off the curve) [2]: ~0.08 nM
- IC50 (read off the curve) [3]: ~0.09 nM
